Patent US20020119521A1
Values belong to the molecule of their own block, whether it stands above or below them.

How the values were obtained:
Assay in all cases: cell-based or functional assay
[1] = target: Full length MmRXR (mouse Mus musculus RXR alpha) (Mus musculus) (UniProt P28700)
[2] = target: VP16AD-CfEcRCDEF chimeric polypeptide (Choristoneura fumiferana)
[3] = target: VP16AD-DmEcRCDEF chimeric polypeptide (Drosophila melanogaster)
[4] = target: VP16AD-CfUSPDEF chimeric polypeptide (Choristoneura fumiferana)
[5] = target: VP16AD-MmRXRDEF chimeric polypeptide (Mus musculus)
[6] = target: T1, B42AD:MmRXR-DEF fusion (Mus musculus)
T1 sequence: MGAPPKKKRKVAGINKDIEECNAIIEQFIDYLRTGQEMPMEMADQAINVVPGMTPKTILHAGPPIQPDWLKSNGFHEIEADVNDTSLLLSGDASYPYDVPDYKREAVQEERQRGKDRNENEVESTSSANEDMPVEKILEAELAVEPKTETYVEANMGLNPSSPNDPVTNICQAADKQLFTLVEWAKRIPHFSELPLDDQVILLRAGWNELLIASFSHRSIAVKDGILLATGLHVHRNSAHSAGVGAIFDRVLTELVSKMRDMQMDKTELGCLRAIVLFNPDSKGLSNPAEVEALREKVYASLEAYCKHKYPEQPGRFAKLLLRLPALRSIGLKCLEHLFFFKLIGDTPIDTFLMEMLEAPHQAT

Molecule: Drosophila melanogaster EcR with a modified DNABD fused to VP16AD (DmVgRXR system, Invitrogen) (receptor)
- Mean Fold Activation Through N-(2-ethyl-3-methoxybenzoyl)-N'-(3,5-dimethylbenzoyl)-N'-t-butylhydrazine; pIND(SP1)LacZ reporter, 3T3 cells [1]: 21 fold
- Mean Fold Activation Through N-(2-ethyl-3-methoxybenzoyl)-N'-(3,5-dimethylbenzoyl)-N'-t-butylhydrazine; pIND(SP1)LacZ reporter, 293 cells [1]: 21 fold
- Mean Fold Activation with 50 µM N-(2-ethyl-3-methoxybenzoyl)-N'-(3,5-dimethylbenzoyl)-N'-t-butylhydrazine; pIND(SP1)LacZ reporter, CHO cells [1]: 14 fold

Molecule: Truncated CfEcR comprising a partial A/B domain and the complete CDEF domains, fused to VP16AD (CfVgRXR) (receptor)
- Mean Fold Activation Through N-(2-ethyl-3-methoxybenzoyl)-N'-(3,5-dimethylbenzoyl)-N'-t-butylhydrazine; pIND(SP1)LacZ reporter, 3T3 cells [1]: 19 fold
- Mean Fold Activation Through N-(2-ethyl-3-methoxybenzoyl)-N'-(3,5-dimethylbenzoyl)-N'-t-butylhydrazine; pIND(SP1)LacZ reporter, 293 cells [1]: 12 fold
- Mean Fold Activation with 50 µM N-(2-ethyl-3-methoxybenzoyl)-N'-(3,5-dimethylbenzoyl)-N'-t-butylhydrazine; pIND(SP1)LacZ reporter, CHO cells [1]: 27 fold

Molecule: Gal4DBD-MmRXRDEF chimeric polypeptide (receptor)
- Mean Fold Activation Through N-(2-ethyl-3-methoxybenzoyl)-N'-(3,5-dimethylbenzoyl)-N'-t-butylhydrazine; pGAL4RELuc reporter, 3T3 cells [2]: 47 fold
- Mean Fold Activation Through N-(2-ethyl-3-methoxybenzoyl)-N'-(3,5-dimethylbenzoyl)-N'-t-butylhydrazine; pGAL4RELuc reporter, 293 cells [2]: 17 fold
- Mean Fold Activation with 50 µM N-(2-ethyl-3-methoxybenzoyl)-N'-(3,5-dimethylbenzoyl)-N'-t-butylhydrazine; pGAL4RELuc reporter, CHO cells [2]: 85 fold
- Mean Fold Induction at 1.0 µM Concentration of Muristerone A; switch 1.3 in 3T3 cells [2]: 1 fold
- Mean Fold Induction at 1.0 µM Concentration of N'-(3,4-(1,2-ethylenedioxy)-2-methylbenzoyl)-N'-(3,5-dimethylbenzoyl)-N'-tert-butylhydrazine; switch 1.3 in 3T3 cells [2]: 54 fold
- Mean Fold Induction at 1.0 µM Concentration of N-(2-ethyl-3-methoxybenzoyl)-N'-3,5-dimethylbenzoyl)-N'-tert-butylhydrazine; switch 1.3 in 3T3 cells [2]: 71 fold
- Mean Fold Induction at 1.0 µM Concentration of Ponasterone A; switch 1.3 in 3T3 cells [2]: 1 fold
- Mean Fold Activation Through N-(2-ethyl-3-methoxybenzoyl)-N'-(3,5-dimethylbenzoyl)-N'-t-butylhydrazine; pGAL4RELuc reporter, 3T3 cells [3]: 269 fold
- Mean Fold Activation Through N-(2-ethyl-3-methoxybenzoyl)-N'-(3,5-dimethylbenzoyl)-N'-t-butylhydrazine; pGAL4RELuc reporter, 293 cells [3]: 3 fold
- Mean Fold Activation with 50 µM N-(2-ethyl-3-methoxybenzoyl)-N'-(3,5-dimethylbenzoyl)-N'-t-butylhydrazine; pGAL4RELuc reporter, CHO cells [3]: 312 fold

Molecule: Gal4DBD-CfUSPDEF chimeric polypeptide (receptor)
- Mean Fold Activation Through N-(2-ethyl-3-methoxybenzoyl)-N'-(3,5-dimethylbenzoyl)-N'-t-butylhydrazine; pGAL4RELuc reporter, 3T3 cells [2]: 3 fold
- Mean Fold Activation Through N-(2-ethyl-3-methoxybenzoyl)-N'-(3,5-dimethylbenzoyl)-N'-t-butylhydrazine; pGAL4RELuc reporter, 293 cells [2]: 2 fold
- Mean Fold Activation with 50 µM N-(2-ethyl-3-methoxybenzoyl)-N'-(3,5-dimethylbenzoyl)-N'-t-butylhydrazine; pGAL4RELuc reporter, CHO cells [2]: 2 fold

Molecule: Gal4DBD-CfEcRDEF chimeric polypeptide (receptor)
- Mean Fold Activation Through N-(2-ethyl-3-methoxybenzoyl)-N'-(3,5-dimethylbenzoyl)-N'-t-butylhydrazine; pGAL4RELuc reporter, 3T3 cells [4]: 2 fold
- Mean Fold Activation Through N-(2-ethyl-3-methoxybenzoyl)-N'-(3,5-dimethylbenzoyl)-N'-t-butylhydrazine; pGAL4RELuc reporter, 293 cells [4]: 2 fold
- Mean Fold Activation with 50 µM N-(2-ethyl-3-methoxybenzoyl)-N'-(3,5-dimethylbenzoyl)-N'-t-butylhydrazine; pGAL4RELuc reporter, CHO cells [4]: 2 fold
- Mean Fold Activation Through N-(2-ethyl-3-methoxybenzoyl)-N'-(3,5-dimethylbenzoyl)-N'-t-butylhydrazine; pGAL4RELuc reporter, 3T3 cells [5]: 1120 fold
- Mean Fold Activation Through N-(2-ethyl-3-methoxybenzoyl)-N'-(3,5-dimethylbenzoyl)-N'-t-butylhydrazine; pGAL4RELuc reporter, 293 cells [5]: 125 fold
- Mean Fold Activation with 50 µM N-(2-ethyl-3-methoxybenzoyl)-N'-(3,5-dimethylbenzoyl)-N'-t-butylhydrazine; pGAL4RELuc reporter, CHO cells [5]: 267 fold
- Mean Fold Induction at 1.0 µM Concentration of Muristerone A; switch 1.1 in 3T3 cells [5]: 1 fold
- Mean Fold Induction at 1.0 µM Concentration of N'-(3,4-(1,2-ethylenedioxy)-2-methylbenzoyl)-N'-(3,5-dimethylbenzoyl)-N'-tert-butylhydrazine; switch 1.1 in 3T3 cells [5]: 601 fold
- Mean Fold Induction at 1.0 µM Concentration of N-(2-ethyl-3-methoxybenzoyl)-N'-(3,5-dimethylbenzoyl)-N'-tert-butylhydrazine; switch 1.1 in 3T3 cells [5]: 116 fold
- Mean Fold Induction at 1.0 µM Concentration of Ponasterone A; switch 1.1 in 3T3 cells [5]: 1 fold
- ligand concentration at which transactivation was initiated (non-steroid ligands) [5]: < 1 µM
- ligand concentration at which transactivation was initiated (steroid ligands) [5]: 50 µM

- fold induction of the LacZ reporter in a yeast two-hybrid assay with GS-E [6]: 1800 fold
B1: LexA:CfEcRDEF fusion (receptor)
chain: MKALTARQQEVFDLIRDHISQTGMPPTRAEIAQRLGFRSPNAAEEHLKALARKGVIEIVSGASRGIRLLQEEEEGLPLVGRVAAGEPLLAQQHIEGHYQVDPSLFKPNADFLLRVSGMSMKDIGIMDGDLLAVHKTQDVRNGQVVVARIDDEVTVKRLKKQGNKVELLPENSEFKPIVVDLRQQSFTIEGLAVGVIRNGDWLPECVVPETQCAMKRKEKKAQKEKDKLPVSTTTVDDHMPPIMQCEPPPPEAARIHEVVPRFLSDKLLETNRQKNIPQLTANQQFLIARLIWYQDGYEQPSDEDLKRITQTWQQADDENEESDTPFRQITEMTILTVQLIVEFAKGLPGFAKISQPDQITLLKACSSEVMMLRVARRYDAASDSVLFANNQAYTRDNYRKAGMAYVIEDLLHFCRCMYSMALDNIHYALLTAVVIFSDRPGLEQPQLVEEIQRYYLNTLRIYILNQLSGSARSSVIYGKILSILSELRTLGMQNSNMCISLKLKNRKLPPFLEEIWDVADMSHTQPPPILESPTNL
